From US20240150440A1 (LUMEN BIOSCIENCE, published 2024)

Tests used:
[1] = molecular target: T1, SARS-CoV-2 Alpha Variant RBD (SARS-CoV-2 Alpha variant); test: ELISA, RBD coated
T1 construct: domain: RBD; coated on ELISA plates

[2] = molecular target: T2, SARS-CoV-2 Beta Variant RBD (SARS-CoV-2 Beta variant); test: ELISA, RBD coated
T2 construct: domain: RBD; coated on ELISA plates

[3] = molecular target: T3, SARS-CoV-2 Gamma Variant RBD (SARS-CoV-2 Gamma variant); test: ELISA, RBD coated
T3 construct: domain: RBD; coated on ELISA plates

[4] = molecular target: T4, SARS-CoV-2 spike protein on pseudotyped lentivirus (Wuhan Reference Pseudovirus) (SARS-CoV-2, UniProt P0DTC2 14-1273); test: cell-based or functional assay
[5] = molecular target: T4, SARS-CoV-2 spike protein on pseudotyped …; test: cell-based or functional assay; remark: listed apart in the source
[6] = molecular target: SARS-CoV-2 Gamma Variant spike protein on pseudotyped lentivirus (SARS-CoV-2 Gamma variant); test: cell-based or functional assay
[7] = molecular target: T4, SARS-CoV-2 spike protein on pseudotyped …; test: cell-based or functional assay; remark: listed apart in the source
[8] = molecular target: T5, recombinant SARS-CoV-2 RBD with C-terminal AviTag (SARS-CoV-2, UniProt P0DTC2 319-541); test: BLI, biotinylated RBD on streptavidin biosensors [Cont. 2]
[9] = molecular target: T5, recombinant SARS-CoV-2 RBD with …; test: ELISA, competition with coated ACE2-Fc for RBD [Cont. 2]
[10] = molecular target: T6, SARS-CoV-2 Delta Variant RBD (SARS-CoV-2 Delta variant); test: ELISA, RBD coated
T6 construct: domain: RBD; coated on ELISA plates

[11] = molecular target: SARS-CoV-2 Delta Variant spike protein on pseudotyped lentivirus (SARS-CoV-2 Delta variant); test: cell-based or functional assay
[12] = molecular target: T4, SARS-CoV-2 spike protein on pseudotyped …; test: cell-based or functional assay; remark: listed apart in the source
[13] = molecular target: T4, SARS-CoV-2 spike protein on pseudotyped …; test: cell-based or functional assay; remark: listed apart in the source
[14] = molecular target: T5, recombinant SARS-CoV-2 RBD with …; test: BLI, biotinylated RBD on streptavidin biosensors [Cont. 3]
[15] = molecular target: T5, recombinant SARS-CoV-2 RBD with …; test: BLI, biotinylated RBD on streptavidin biosensors; BLD: below limit of detection
[16] = molecular target: T5, recombinant SARS-CoV-2 RBD with …; test: BLI, biotinylated RBD on streptavidin biosensors [Cont. 5]
[17] = molecular target: T5, recombinant SARS-CoV-2 RBD with …; test: ELISA, competition with coated ACE2-Fc for RBD [Cont. 5]
[18] = molecular target: T5, recombinant SARS-CoV-2 RBD with …; test: BLI, biotinylated RBD on streptavidin biosensors; OR: over-range
[19] = molecular target: T5, recombinant SARS-CoV-2 RBD with …; test: ELISA, competition with coated ACE2-Fc for RBD
[20] = molecular target: T5, recombinant SARS-CoV-2 RBD with …; test: BLI, biotinylated RBD on streptavidin biosensors [Cont. 1]
[21] = molecular target: T4, SARS-CoV-2 spike protein on pseudotyped …; test: cell-based or functional assay; remark: listed apart in the source
[22] = molecular target: T5, recombinant SARS-CoV-2 RBD with …; test: BLI, biotinylated RBD on streptavidin biosensors
[23] = molecular target: T5, recombinant SARS-CoV-2 RBD with …; test: BLI, biotinylated RBD on streptavidin biosensors, global 1:1 fit
[24] = molecular target: T5, recombinant SARS-CoV-2 RBD with …; test: ELISA, competition with coated human ACE2-FC for RBD-AviTag
[25] = molecular target: T4, SARS-CoV-2 spike protein on pseudotyped …; test: cell-based or functional assay; remark: listed apart in the source
[26] = molecular target: T5, recombinant SARS-CoV-2 RBD with …; test: ELISA, competition with coated ACE2-Fc for RBD [Cont. 1]

B1: PP1107 MBP-5HVZ-PAPA-RN-22-H6 (VHH)
VHH: QVQLVESGGGLVQPGGSLRLSCAASGSISEINLLHWFRQAPGKQREWVATMTSGGSTDYADSVKGRFTISRDNAKNTVYLQMNSLKPEDTAVYYCAADEFTKYGHGRYWGQGTQVTVSS
notes: Form: Dimer
Work on B1 yielded an EC50 [1] of 0.28 nM, an EC50 [2] of 0.25 nM and an EC50 [3] of 0.18 nM. For the same binder, the “infectivity % under 10 ug/mL VHH treatment” value (from here on “infectivity %”) [4] was 34.3%, the “Pseudovirus neutralization IC50” value [5] was 32.9 nM and the “Pseudovirus neutralization IC50” value [6] was 0.649 nM. The “Pseudovirus inhibition IC50 [Cont. 9]” value [7] was 110 nM.

B2: PP1113 MBP-5HVZ-PAPA-RN-29-H6 (VHH)
VHH: QVQLVESGGGLVQPGGSLRLSCAASGYILSENLTAWFRQAPGKAREVVATVTSGDYTNYDDSVKGRFTISRDNAKNTVYLQMNSLKPEDTAVYYCAAGTSDWEVKWSHWGQGTQVTVSS
notes: Form: Dimer
B2 was tested, and the EC50 [1] was 0.72 nM, the EC50 [2] was 5.64 nM and the EC50 [3] was 3.37 nM. The “infectivity %” value [4] was 6.25%, the “Pseudovirus neutralization IC50” value [5] was 7.09 nM and the “Pseudovirus inhibition IC50 [Cont. 9]” value [7] was 9.38 nM.

B3: PP819 MBP-R5A-C5-H6 (VHH)
VHH: QVQLVESGGGLVQPGGSLRLSCAASGDIFSINALHWFRQAPGKQREEVAAITSGGSTGYADSVKGRFTISRDNAKNTVYLQMNSLKPEDTAVYYCAAQQARGGLDSDYWGQGTQVTVSS
notes: Form: Monomer
For B3, the “infectivity %” value [4] was 54.1%, the Kd [8] was 42.1 nM and the IC50 [9] was 71.9 nM.

B4: PP1150 MBP-5HVZ-PAPA-R5b-G1-H6 (VHH)
VHH: QVQLVESGGGLVQPGGSLRLSCAASGSIGQIVLVHWFRQAPGKQRELVAGITSPSSTYYADSVKGRFTISRDNAKNTVYLQMNSLKPEDTAVYYCNTELEGKTQGFTGKTVWYDYWGQGTQVTVSS
notes: Form: Dimer
For B4, the EC50 [1] was 20.1 nM, the EC50 [10] was 0.86 nM and the “infectivity %” value [4] was 2.31%. The “Pseudovirus neutralization IC50” value [5] was 2.72 nM, the “Pseudovirus neutralization IC50” value [11] was 0.43 nM and the “Pseudovirus inhibition IC50 [Cont. 3]” value [12] was 2.33 nM.

B5: PP1140 MBP-4B0F-PAPA-R5d-B6-H6 (VHH)
VHH: QVQLVESGGGLVQPGGSLRLSCAASGRILAANIVHWYRQAPGKEREGVAGITSGGGSYYADSVKGRFTISRDNAKNTVYLQMNSLKPEDTAVYYCNALGLGQSSLYRSADPYDSWGQGTQVTVSS
notes: Form: Heptamer
For B5, the “infectivity %” value [4] was 2.47%, the “Pseudovirus neutralization IC50” value [5] was 2.07 nM and the “Pseudovirus inhibition IC50 [Cont. 5]” value [13] was 7.04 nM.

B6: PP822 MBP-R5A-E5-H6 (VHH)
VHH: QVQLVESGGGLVQPGGSLRLSCAASGYDFDILRMAWFRQAPGKEREMVAAITSAESVNYEDSVKGRFTISRDNAKNTVYLQMNSLKPEDTAVYYCATYDYTDDYGYASWGQGTQVTVSS
notes: Form: Monomer
For B6, the “infectivity %” value [4] was 71.6%, the Kd [8] was 6.97 nM and the IC50 [9] was 183 nM.

B7: PP826 MBP-R5C-A2-H6 (VHH)
VHH: QVQLVESGGGLVQPGGSLRLSCAASGDIFSKNAMHWVRQAPGKQREFVAGIYSDGSSLYADSVKGRFTISRDNAKNTVYLQMNSLKPEDTAVYYCAALDYSARYRTWGQGTQVTVSS
notes: Form: Monomer
With B7 the “infectivity %” value [4] was 70.6% and the Kd [14] was 420 nM.

B8: PP802 MBP-R2A-C5-H6 (VHH)
VHH: QVQLVESGGGLVQPGGSLRLSCAASGTWGNIQYLSWFRQAPGKRREFVAAITPNNGTNYADSVKGRFTISRDNAKNTVYLQMNSLKPEDTAVYYCTAVLWYTTKEGPYDYWGQGTQVTVSS
notes: Form: Monomer
In the case of B8, the “infectivity %” value [4] is reported as 87.8% and the Kd [15] is reported as ~23000 nM.

B9: PP846 MBP-R5D-G6-H6 (VHH)
VHH: QVQLVESGGGLVQPGGSLRLSCAASGRILAANIVHWYRQAPGKNREGVAGITSGGSTYYADSVKGRFTISRDNAKNTVYLQMNSLKPEDTAVYYCAAKPLGSPDDFDYWGQGTQVTVSS
notes: Form: Monomer
In the case of B9, the “infectivity %” value [4] is reported as 77.1%, the Kd [16] is reported as 564 nM and the IC50 [17] is reported as 7.5 nM.

B10: PP803 MBP-R2A-F3-H6 (VHH)
VHH: QVQLVESGGGLVQPGGSLRLSCAASGSITSINWMHWFRQAPGKDREGVASISQTGRGSYADSVKGRFTISRDNAKNTVYLQMNSLKPEDTAVYYCAAASRTGTPYNYWGQGTQVTVSS
notes: Form: Monomer
For B10, the “infectivity %” value [4] was 70.7% and the Kd [18] was ~1900 nM.

B11: PP807 MBP-R2C-B3-H6 (VHH)
VHH: QVQLVESGGGLVQPGGSLRLSCAASGTYASYETIAWYRQAPGKQREKVARITGAGSSFYADSVKGRFTISRDNAKNTVYLQMNSLKPEDTAVYYCNADSIPPALRAANTGYWGQGTQVTVSS
notes: Form: Monomer
B11 was tested, and the “infectivity %” value [4] was 75.3%, the IC50 [19] was 148 nM and the Kd [18] was ~950 nM.

B12: PP813 MBP-R2E-D2-H6 (VHH)
VHH: QVQLVESGGGLVQPGGSLRLSCAASGHQLSTNATHWFRQAPGKNREFVASIGSGSSSYYADSVKGRFTISRDNAKNTVYLQMNSLKPEDTAVYYCTALGGDELDGMTYDYWGQGTQVTVSS
notes: Form: Monomer
For B12, the “infectivity %” value [4] was 75.5% and the Kd [20] was 100 nM.

B13: dimeric VHH (VHH-5HVZ-MBP) R2A-F3 (VHH)
VHH: B10 VHH
With B13 the “Pseudovirus inhibition IC50” value [21] was 272 nM, the Kd [22] was 5.66 nM and the IC50 [19] was 1.6 nM. For the same binder, the Kd [23] was 5.7 nM and the “IC50 (read off the curve)” value [24] was ~2 nM.

B14: dimeric VHH (VHH-5HVZ-MBP) R2C-G6 (VHH)
VHH: QVQLVESGGGLVQPGGSLRLSCAASGSIYKYSDVHWFRQAPGKAREAVALLTGAGTTIYGDSVKGRFTISRDNAKNTVYLQMNSLKPEDTAVYYCAAGQGFKATRTFDSWGQGTQVTVSS
For B14, the “Pseudovirus inhibition IC50 [Cont. 1]” value [25] was 134 nM, the Kd [20] was 35.7 nM and the IC50 [26] was 3.9 nM.

B15: R5D-D4 (competition ELISA sample) (VHH)
VHH: QVQLVESGGGLVQPGGSLRLSCAASGSDFTINAMHWFRQAPGKQREFVATITSTSSTAYRDSVKGRFTISRDNAKNTVYLQMNSLKPEDTAVYYCAAFAVRDADTAGWTARDYWGQGTQVTVSS
With B15 the “Pseudovirus inhibition IC50 [Cont. 5]” value [13] was 166 nM, the Kd [16] was 130 nM and the IC50 [17] was 48.1 nM. For the same binder, the Kd [23] was 130 nM.

B16: MBP-5HVZ-R2A-C5-H6 (VHH, not shown: large carriers; small tags and cut ends)
VHH: B8 VHH
For B16, the Kd [15] was ~3250 nM.
